The text below walks through data of publication PMC4140284, “Human UTY(KDM6C) Is a Male-specific N^ϵ-Methyl Lysyl Demethylase” (The Journal of Biological Chemistry, 2014).

“Also recorded” adds a separate entry of the source.

For assay [1], the system named is H3K27Me3 levels in HeLa cells. The assay can be described thus: Immunofluorescence of global H3K27Me3 levels on overexpression in HeLa cells. As to conditions: exogenous overexpression in HeLa cells. In kind it is cell-based. As to the method: For cell-based experiments, HEK 293T and HeLa cells were cultured at 37 °C and 5% CO2 in DMEM (Lonza) supplemented with 10% fetal bovine serum (FBS) (Invitrogen) and 1% Glutamax (Invitrogen). For microscopy, HeLa cells were seeded into 96-well clear bottom optical grade plates (BD Biosciences) at 8000 cells/well and allowed to settle overnight. Transfections were carried out the next day. For each well, 0.1 μg of plasmid and 0.25 μl of Lipofectamine 2000 (Invitrogen) were each incubated in 25 μl of Opti-MEM (Invitrogen) for 5 min at room temperature. The two solutions were then mixed gently but thoroughly and incubated for 20 min at room temperature. The mixture was added to the cells in 50 μl of fresh medium. Four hours later, the medium was changed, and the cells were incubated for a further 24 h before fixation. Cells were fixed in 4% (v/v) aqueous formaldehyde for 20 min, permeabilized in 0.5% Triton X-100 in phosphate-buffered saline (PBS) for 8 min, and blocked in 3% (w/v) FBS in PBS for 1 h with a PBS wash between each step. The primary antibodies were then added to the cells in blocking solution. […] Luciferase activity was measured using the Promega Dual-Luciferase Reporter Assay System on a Promega GloMax 20/20 luminometer. Readings were normalized to a Renilla luciferase control that was co-transfected with all samples. […]

Assay [2] relates to ANF promoter in HEK 293T cells. The assay can be described thus: ANF promoter dual luciferase assay in HEK 293T cells. In kind it is cell-based. As to conditions: for ANF promoter luciferase expression in the presence of Nkx2.5: Nkx2.5 present. As to the method:
For cell-based experiments, HEK 293T and HeLa cells were cultured at 37 °C and 5% CO2 in DMEM (Lonza) supplemented with 10% fetal bovine serum (FBS) (Invitrogen) and 1% Glutamax (Invitrogen). For microscopy, HeLa cells were seeded into 96-well clear bottom optical grade plates (BD Biosciences) at 8000 cells/well and allowed to settle overnight. Transfections were carried out the next day. For each well, 0.1 μg of plasmid and 0.25 μl of Lipofectamine 2000 (Invitrogen) were each incubated in 25 μl of Opti-MEM (Invitrogen) for 5 min at room temperature. The two solutions were then mixed gently but thoroughly and incubated for 20 min at room temperature. The mixture was added to the cells in 50 μl of fresh medium. Four hours later, the medium was changed, and the cells were incubated for a further 24 h before fixation. Cells were fixed in 4% (v/v) aqueous formaldehyde for 20 min, permeabilized in 0.5% Triton X-100 in phosphate-buffered saline (PBS) for 8 min, and blocked in 3% (w/v) FBS in PBS for 1 h with a PBS wash between each step. The primary antibodies were then added to the cells in blocking solution. After 1 h at room temperature, cells were washed three times in PBS, incubated with secondary antibodies for 1 h, rinsed three times in PBS again, and counterstained with DAPI before imaging. Luciferase activity assays were carried out as described previously ([13], [22], [40]). The atrial natriuretic factor (ANF) promoter-luciferase reporter was a kind gift from Benoit Bruneau ([41]). As for immunofluorescence assays, this construct was co-transfected into HEK 293T cells in the presence of full-length (FL) WT UTY(KDM6C) or H1095 UTY(KDM6C). Luciferase activity was measured using the Promega Dual-Luciferase Reporter Assay System on a Promega GloMax 20/20 luminometer. Readings were normalized to a Renilla luciferase control that was co-transfected with all samples.

B1: FL WT UTY(KDM6C): full-length wild type UTY(KDM6C) exogenously expressed in cells (protein, UniProt O14607 1-1347, looked up)
chain: MKSCAVSLTTAAVAFGDEAKKMAEGKASRESEEESVSLTVEEREALGGMDSRLFGFVRLHEDGARTKTLLGKAVRCYESLILKAEGKVESDFFCQLGHFNLLLEDYSKALSAYQRYYSLQADYWKNAAFLYGLGLVYFYYNAFHWAIKAFQDVLYVDPSFCRAKEIHLRLGLMFKVNTDYKSSLKHFQLALIDCNPCTLSNAEIQFHIAHLYETQRKYHSAKEAYEQLLQTENLPAQVKATVLQQLGWMHHNMDLVGDKATKESYAIQYLQKSLEADPNSGQSWYFLGRCYSSIGKVQDAFISYRQSIDKSEASADTWCSIGVLYQQQNQPMDALQAYICAVQLDHGHAAAWMDLGTLYESCNQPQDAIKCYLNAARSKRCSNTSTLAARIKFLQNGSDNWNGGQSLSHHPVQQVYSLCLTPQKLQHLEQLRANRDNLNPAQKHQLEQLESQFVLMQQMRHKEVAQVRTTGIHNGAITDSSLPTNSVSNRQPHGALTRVSSVSQPGVRPACVEKLLSSGAFSAGCIPCGTSKILGSTDTILLGSNCIAGSESNGNVPYLQQNTHTLPHNHTDLNSSTEEPWRKQLSNSAQGLHKSQSSCLSGPNEEQPLFSTGSAQYHQATSTGIKKANEHLTLPSNSVPQGDADSHLSCHTATSGGQQGIMFTKESKPSKNRSLVPETSRHTGDTSNGCADVKGLSNHVHQLIADAVSSPNHGDSPNLLIADNPQLSALLIGKANGNVGTGTCDKVNNIHPAVHTKTDHSVASSPSSAISTATPSPKSTEQRSINSVTSLNSPHSGLHTVNGEGLGKSQSSTKVDLPLASHRSTSQILPSMSVSICPSSTEVLKACRNPGKNGLSNSCILLDKCPPPRPPTSPYPPLPKDKLNPPTPSIYLENKRDAFFPPLHQFCTNPKNPVTVIRGLAGALKLDLGLFSTKTLVEANNEHMVEVRTQLLQPADENWDPTGTKKIWRCESNRSHTTIAKYAQYQASSFQESLREENEKRTQHKDHSDNESTSSENSGRRRKGPFKTIKFGTNIDLSDNKKWKLQLHELTKLPAFARVVSAGNLLTHVGHTILGMNTVQLYMKVPGSRTPGHQENNNFCSVNINIGPGDCEWFVVPEDYWGVLNDFCEKNNLNFLMSSWWPNLEDLYEANVPVYRFIQRPGDLVWINAGTVHWVQAVGWCNNIAWNVGPLTACQYKLAVERYEWNKLKSVKSPVPMVHLSWNMARNIKVSDPKLFEMIKYCLLKILKQYQTLREALVAAGKEVIWHGRTNDEPAHYCSICEVEVFNLLFVTNESNTQKTYIVHCHDCARKTSKSLENFVVLEQYKMEDLIQVYDQFTLALSLSSSS
modifications: full-length
notes: full-length wild type UTY(KDM6C) exogenously expressed in cells
In the case of B1, in assay [1], the “change in global H3K27Me3 level” value was “no detectable decrease; also recorded: no change in H3K27Me3 levels”. Further, in assay [2] (HEK 293T cells), the “ANF promoter luciferase expression in the presence of Nkx2.5” value is given as “does not further enhance expression”. Moreover, in assay [2] (HEK 293T cells, without Nkx2.5, *, p < 0.05 unpaired Student's t test), the “ANF promoter luciferase expression (in words)” value is recorded as “enhanced expression”. In addition, the “increase in ANF promoter-coupled luciferase expression” value in assay [2] (overexpression in HEK 293T cells, relative to empty vector control, average of three biological replicates of triplicate transfections) is reported as 5 -fold.

B2: Nkx2.5: transcription factor (protein, UniProt P52952 1-324, looked up)
Homeobox protein Nkx-2.5: MFPSPALTPTPFSVKDILNLEQQQRSLAAAGELSARLEATLAPSSCMLAAFKPEAYAGPEAAAPGLPELRAELGRAPSPAKCASAFPAAPAFYPRAYSDPDPAKDPRAEKKELCALQKAVELEKTEADNAERPRARRRRKPRVLFSQAQVYELERRFKQQRYLSAPERDQLASVLKLTSTQVKIWFQNRRYKCKRQRQDQTLELVGLPPPPPPPARRIAVPVLVRDGKPCLGDSAPYAPAYGVGLNPYGYNAYPAYPGYGGAACSPGYSCTAAYPAGPSPAQPATAAANNNFVNFGVGDLNAVQSPGIPQSNSGVSTLHGIRAW
As for B2, the “ANF promoter luciferase expression in the presence of Nkx2.5” value in assay [2] (HEK 293T cells) is listed as “enhanced expression from the ANF promoter”.
